The EC50 (read off the curve) is the concentration giving half of the maximal effect.

In the assay the target is N-terminal of CD73. As to the kind of experiment: plate binding assay, axis Binding activity (OD450) against Ab (µg/ml); panel Binding to N-terminal of CD73.

Turning to MEDI-9447 (Medimmune) (antibody), the EC50 (read off the curve) stood at 0.01 µg/mL.

For the origin of these results see patent US20200332005A1.
